The labels stand for the following.
B1: S. cerevisiae Abp1 (full length; SH3 domain 535-592 mutated) / Hua2 (parent complex)
chain 1: MALEPIDYTTHSREIDAEYLKIVRGSDPDTTWLIISPNAKKEYEPESTGSSFHDFLQLFDETKVQYGLARVSPPGSDVEKIIIIGWCPDSAPLKTRASFAANFAAVANNLFKGYHVQVTARDEDDLDENELLMKISNAAGARYSIQTSSKQQGKASTPPVKKSFTPSKSPAPVSKKEPVKTPSPAPAAKISSRVNDNNDDDDWNEPELKERDFDQAPLKPNQSSYKPIGKIDLQKVIAEEKAKEDPRLVQKPTAAGSKIDPSSDIANLKNESKLKRDSEFNSFLGTTKPPSMTESSLKNDDDKVIKGFRNEKSPAQLWAERKAKQNSGNAETKAEAPKPEVPEDEPEGEPDVKDLKSKFEGLAASEKEEEEMENKFAPPPKKSEPTIISPKPFSKPQEPVKAEEAEQPKTDYKKIGNPLPGMHIEADNEEEPEENDDDWDDDEDEAAQPPLPSRNVASGAPVQKEEPEQEEIAPSLPSRNSIPAPKQEEAPEQAPEEEIEEEAEEAAPQLPSRSSAAPPPPPRRATPEKKPKENPWATAEYDYDAAEDNELTFVENDKIINIEFVDDDWWLGELEKDGSKGLFPSNYVSLGN
chain 2: MQQTKFGKMYLDHDSVVEYSEDEIVEADRITLGYKKRLSMIENQMRHLLEDFSLDVQQIEPILADLQKYYDAFLQLLQKRNKSLQCKRSTHQPVPSPMNSQTSTNAKVNLSGKLMKFQLNSVQKFDEENILRILQNKIEFEHYFQIDKGKKQKVLLLAVYQCLNGPTRLHKVLNIEGIIHNNSIRTILGKQVSSSKWTVFLYDVKLVLLAHRQDVPNLETSKMIVRYGDLFPCALYFKDHTAY

In the assay the parent is B1. Nature of the assay: DHFR protein-fragment complementation in yeast (Abp1-DHFR F[1,2] x partner-DHFR F[3]), deep mutational scanning, second methotrexate selection vs reference; S. cerevisiae, DHFR-PCA selection in liquid with methotrexate at 30 C, two 72 h selections (the score uses the second); reference = the pre-selection culture.
Turning to chain 1 A537G, the screen value is 0.922 DMS score: mean over two replicates of log2(f_test/f_ref + 0.5)/ln 2, minus the synonymous-codon median (not a log2 ….
Regarding chain 1 L551I, the screen value is -0.106 DMS score: mean over two replicates of log2(f_test/f_ref + 0.5)/ln 2, minus the synonymous-codon median (not a log2 ….
The result for chain 1 T538L reads 0.677 DMS score: mean over two replicates of log2(f_test/f_ref + 0.5)/ln 2, minus the synonymous-codon median (not a log2 …; that for chain 1 T538I, 0.252 DMS score: mean over two replicates of log2(f_test/f_ref + 0.5)/ln 2, minus the synonymous-codon median (not a log2 …; that for chain 1 T538A, -0.987 DMS score: mean over two replicates of log2(f_test/f_ref + 0.5)/ln 2, minus the synonymous-codon median (not a log2 ….
The value for chain 1 T538N was -0.471 DMS score: mean over two replicates of log2(f_test/f_ref + 0.5)/ln 2, minus the synonymous-codon median (not a log2 …; that for chain 1 G578A was -0.527 DMS score: mean over two replicates of log2(f_test/f_ref + 0.5)/ln 2, minus the synonymous-codon median (not a log2 ….
Consider chain 1 G578N, for which the screen value was 0.0866 DMS score: mean over two replicates of log2(f_test/f_ref + 0.5)/ln 2, minus the synonymous-codon median (not a log2 ….
The value for chain 1 G578H was 0.339 DMS score: mean over two replicates of log2(f_test/f_ref + 0.5)/ln 2, minus the synonymous-codon median (not a log2 …; that for chain 1 G578S was -0.671 DMS score: mean over two replicates of log2(f_test/f_ref + 0.5)/ln 2, minus the synonymous-codon median (not a log2 ….
Regarding chain 1 A546G, the screen value is 0.413 DMS score: mean over two replicates of log2(f_test/f_ref + 0.5)/ln 2, minus the synonymous-codon median (not a log2 ….
Consider chain 1 A546V, for which the screen value was -0.179 DMS score: mean over two replicates of log2(f_test/f_ref + 0.5)/ln 2, minus the synonymous-codon median (not a log2 ….
The result for chain 1 E563N reads -0.99 DMS score: mean over two replicates of log2(f_test/f_ref + 0.5)/ln 2, minus the synonymous-codon median (not a log2 …; that for chain 1 E563R, -1.39 DMS score: mean over two replicates of log2(f_test/f_ref + 0.5)/ln 2, minus the synonymous-codon median (not a log2 ….
The result for chain 1 E573I reads -0.283 DMS score: mean over two replicates of log2(f_test/f_ref + 0.5)/ln 2, minus the synonymous-codon median (not a log2 ….
Take chain 1 E573V: the screen value was 0.415 DMS score: mean over two replicates of log2(f_test/f_ref + 0.5)/ln 2, minus the synonymous-codon median (not a log2 ….
The result for chain 1 E573Q reads -0.0881 DMS score: mean over two replicates of log2(f_test/f_ref + 0.5)/ln 2, minus the synonymous-codon median (not a log2 …; that for chain 1 E573T, 0.75 DMS score: mean over two replicates of log2(f_test/f_ref + 0.5)/ln 2, minus the synonymous-codon median (not a log2 …; that for chain 1 E540H, -2.15 DMS score: mean over two replicates of log2(f_test/f_ref + 0.5)/ln 2, minus the synonymous-codon median (not a log2 ….
The result for chain 1 E540K reads -2.41 DMS score: mean over two replicates of log2(f_test/f_ref + 0.5)/ln 2, minus the synonymous-codon median (not a log2 ….
Consider chain 1 E540I, for which the screen value is -2.91 DMS score: mean over two replicates of log2(f_test/f_ref + 0.5)/ln 2, minus the synonymous-codon median (not a log2 ….
The value for chain 1 E540M was -2.49 DMS score: mean over two replicates of log2(f_test/f_ref + 0.5)/ln 2, minus the synonymous-codon median (not a log2 …; that for chain 1 D548T was 0.434 DMS score: mean over two replicates of log2(f_test/f_ref + 0.5)/ln 2, minus the synonymous-codon median (not a log2 ….
In the case of chain 1 D548N, the screen value is 0.0071 DMS score: mean over two replicates of log2(f_test/f_ref + 0.5)/ln 2, minus the synonymous-codon median (not a log2 ….
Consider chain 1 D548I, for which the screen value was -0.724 DMS score: mean over two replicates of log2(f_test/f_ref + 0.5)/ln 2, minus the synonymous-codon median (not a log2 ….
The value for chain 1 Y587H was -0.477 DMS score: mean over two replicates of log2(f_test/f_ref + 0.5)/ln 2, minus the synonymous-codon median (not a log2 …; that for chain 1 Y587I was -0.578 DMS score: mean over two replicates of log2(f_test/f_ref + 0.5)/ln 2, minus the synonymous-codon median (not a log2 ….
The value for chain 1 L590F was -0.882 DMS score: mean over two replicates of log2(f_test/f_ref + 0.5)/ln 2, minus the synonymous-codon median (not a log2 ….
The result for chain 1 W569Q reads -2.81 DMS score: mean over two replicates of log2(f_test/f_ref + 0.5)/ln 2, minus the synonymous-codon median (not a log2 ….
chain 1 G591Y: the screen value was -0.189 DMS score: mean over two replicates of log2(f_test/f_ref + 0.5)/ln 2, minus the synonymous-codon median (not a log2 ….
The result for chain 1 G591C reads -0.973 DMS score: mean over two replicates of log2(f_test/f_ref + 0.5)/ln 2, minus the synonymous-codon median (not a log2 …; that for chain 1 G591D, -0.157 DMS score: mean over two replicates of log2(f_test/f_ref + 0.5)/ln 2, minus the synonymous-codon median (not a log2 …; that for chain 1 G591I, 0.474 DMS score: mean over two replicates of log2(f_test/f_ref + 0.5)/ln 2, minus the synonymous-codon median (not a log2 ….
Consider chain 1 G591H, for which the screen value is -0.407 DMS score: mean over two replicates of log2(f_test/f_ref + 0.5)/ln 2, minus the synonymous-codon median (not a log2 ….
The result for chain 1 G591S reads 0.409 DMS score: mean over two replicates of log2(f_test/f_ref + 0.5)/ln 2, minus the synonymous-codon median (not a log2 …; that for chain 1 G591V, -0.0626 DMS score: mean over two replicates of log2(f_test/f_ref + 0.5)/ln 2, minus the synonymous-codon median (not a log2 …; that for chain 1 A545E, -0.673 DMS score: mean over two replicates of log2(f_test/f_ref + 0.5)/ln 2, minus the synonymous-codon median (not a log2 ….
The value for chain 1 F553L was 0.618 DMS score: mean over two replicates of log2(f_test/f_ref + 0.5)/ln 2, minus the synonymous-codon median (not a log2 ….

(Values after PMC7954794 (2021).)
